Measurements published in article PMC8113585.

Molecular target: SARS-CoV-2 nucleocapsid (N) protein, full-length;mAb nCoV396 (human IgG1) (SARS-CoV-2;Homo sapiens) (UniProt P0DTC9)
Experiment: EMSA

AAGUUCGUUU [TRS RNA] gave a Kd of 15.1 µM.
